Test results reported in publication PMC2907061 (Traffic (Copenhagen, Denmark), 2009).
Where two headings read alike, the source gives them in different places.

T1: MBP-Kap114 (yeast, UniProt P53067 1-1004)
T1 sequence (looked up): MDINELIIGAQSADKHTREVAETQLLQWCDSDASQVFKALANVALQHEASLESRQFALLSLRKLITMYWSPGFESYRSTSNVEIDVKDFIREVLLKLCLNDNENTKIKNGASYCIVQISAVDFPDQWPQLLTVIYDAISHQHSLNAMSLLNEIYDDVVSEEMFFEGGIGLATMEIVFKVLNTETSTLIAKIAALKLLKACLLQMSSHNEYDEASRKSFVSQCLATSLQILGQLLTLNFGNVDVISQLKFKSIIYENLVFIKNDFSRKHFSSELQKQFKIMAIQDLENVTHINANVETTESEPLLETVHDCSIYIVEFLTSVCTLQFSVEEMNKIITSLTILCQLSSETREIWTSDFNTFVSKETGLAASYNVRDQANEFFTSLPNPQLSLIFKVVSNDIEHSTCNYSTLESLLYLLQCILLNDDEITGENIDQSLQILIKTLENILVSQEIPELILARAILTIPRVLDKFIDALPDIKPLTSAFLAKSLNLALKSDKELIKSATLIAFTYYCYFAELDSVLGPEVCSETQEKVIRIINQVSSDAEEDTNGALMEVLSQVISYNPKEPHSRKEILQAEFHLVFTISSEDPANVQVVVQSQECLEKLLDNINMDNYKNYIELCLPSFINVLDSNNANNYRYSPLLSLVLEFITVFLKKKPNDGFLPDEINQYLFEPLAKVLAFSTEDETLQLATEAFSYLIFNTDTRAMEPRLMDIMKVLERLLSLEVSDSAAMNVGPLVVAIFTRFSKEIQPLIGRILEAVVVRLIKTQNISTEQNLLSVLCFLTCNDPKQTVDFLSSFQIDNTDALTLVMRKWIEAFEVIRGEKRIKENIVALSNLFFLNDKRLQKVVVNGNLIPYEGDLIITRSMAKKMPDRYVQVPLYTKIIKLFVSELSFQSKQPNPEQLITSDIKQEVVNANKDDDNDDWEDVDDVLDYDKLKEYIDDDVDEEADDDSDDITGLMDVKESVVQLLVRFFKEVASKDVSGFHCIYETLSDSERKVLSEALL

T2: MBP-Kap123 (yeast, UniProt P40069 1-1113)
T2 sequence (looked up): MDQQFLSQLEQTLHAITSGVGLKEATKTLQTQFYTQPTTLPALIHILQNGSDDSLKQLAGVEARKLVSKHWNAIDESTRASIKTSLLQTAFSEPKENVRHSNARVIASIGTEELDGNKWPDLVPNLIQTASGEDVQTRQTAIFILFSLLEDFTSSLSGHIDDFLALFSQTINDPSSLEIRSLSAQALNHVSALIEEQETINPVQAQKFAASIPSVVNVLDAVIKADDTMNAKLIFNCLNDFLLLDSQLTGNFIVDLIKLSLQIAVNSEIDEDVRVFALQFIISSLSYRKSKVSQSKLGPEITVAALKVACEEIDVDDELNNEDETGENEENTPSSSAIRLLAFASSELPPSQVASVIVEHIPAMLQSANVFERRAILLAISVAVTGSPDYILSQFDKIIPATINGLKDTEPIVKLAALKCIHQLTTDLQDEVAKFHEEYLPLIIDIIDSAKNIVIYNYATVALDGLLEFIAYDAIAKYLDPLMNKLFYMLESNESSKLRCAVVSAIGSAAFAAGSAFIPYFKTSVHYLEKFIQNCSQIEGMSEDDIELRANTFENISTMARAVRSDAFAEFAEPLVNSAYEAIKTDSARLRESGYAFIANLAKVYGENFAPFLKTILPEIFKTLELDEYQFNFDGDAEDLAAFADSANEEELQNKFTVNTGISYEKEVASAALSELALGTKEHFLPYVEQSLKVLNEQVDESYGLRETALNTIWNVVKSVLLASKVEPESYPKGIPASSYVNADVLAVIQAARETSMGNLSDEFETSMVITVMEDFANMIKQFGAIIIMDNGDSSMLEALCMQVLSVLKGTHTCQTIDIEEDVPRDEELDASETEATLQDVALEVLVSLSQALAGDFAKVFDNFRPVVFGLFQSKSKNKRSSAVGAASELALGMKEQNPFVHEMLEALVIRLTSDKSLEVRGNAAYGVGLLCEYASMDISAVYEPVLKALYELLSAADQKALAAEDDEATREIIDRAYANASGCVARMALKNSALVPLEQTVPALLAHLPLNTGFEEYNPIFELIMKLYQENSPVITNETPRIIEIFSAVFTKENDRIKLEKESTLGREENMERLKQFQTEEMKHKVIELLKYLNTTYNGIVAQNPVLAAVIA

T3: untagged recombinant Kap95 (yeast, UniProt Q06142 1-861)
T3 sequence (looked up): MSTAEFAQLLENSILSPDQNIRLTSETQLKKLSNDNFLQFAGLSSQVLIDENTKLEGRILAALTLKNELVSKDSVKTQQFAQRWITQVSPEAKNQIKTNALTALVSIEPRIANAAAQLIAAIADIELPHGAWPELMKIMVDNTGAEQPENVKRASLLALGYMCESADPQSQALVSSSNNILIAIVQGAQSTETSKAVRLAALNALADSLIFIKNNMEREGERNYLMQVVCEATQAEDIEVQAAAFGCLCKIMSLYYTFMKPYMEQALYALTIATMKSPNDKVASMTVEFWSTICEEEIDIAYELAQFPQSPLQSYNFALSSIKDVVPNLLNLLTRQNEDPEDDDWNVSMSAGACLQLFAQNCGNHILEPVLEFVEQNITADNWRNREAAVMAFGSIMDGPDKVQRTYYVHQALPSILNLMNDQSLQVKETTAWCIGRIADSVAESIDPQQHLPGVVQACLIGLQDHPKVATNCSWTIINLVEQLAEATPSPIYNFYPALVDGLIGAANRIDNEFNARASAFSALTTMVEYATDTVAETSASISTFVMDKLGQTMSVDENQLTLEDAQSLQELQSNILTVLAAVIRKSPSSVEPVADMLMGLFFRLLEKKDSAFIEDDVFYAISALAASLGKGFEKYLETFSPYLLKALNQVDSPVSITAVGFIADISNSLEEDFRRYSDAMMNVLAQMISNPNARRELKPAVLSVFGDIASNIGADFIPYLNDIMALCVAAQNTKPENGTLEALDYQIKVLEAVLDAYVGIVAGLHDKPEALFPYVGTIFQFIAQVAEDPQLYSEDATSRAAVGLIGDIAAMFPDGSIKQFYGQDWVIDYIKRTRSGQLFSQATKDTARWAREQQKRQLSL

B1: GST-Htz1_(1–53) (domain or fragment, yeast, UniProt Q12692 1-53, looked up)
chain: MSGKAHGGKGKSGAKDSGSLRSQSSSARAGLQFPVGRIKRYLKRHATGRTRVG
B2: untagged recombinant Nap1 (natural protein, yeast, UniProt P25293 1-417, looked up)
chain: MSDPIRTKPKSSMQIDNAPTPHNTPASVLNPSYLKNGNPVRAQAQEQDDKIGTINEEDILANQPLLLQSIQDRLGSLVGQDSGYVGGLPKNVKEKLLSLKTLQSELFEVEKEFQVEMFELENKFLQKYKPIWEQRSRIISGQEQPKPEQIAKGQEIVESLNETELLVDEEEKAQNDSEEEQVKGIPSFWLTALENLPIVCDTITDRDAEVLEYLQDIGLEYLTDGRPGFKLLFRFDSSANPFFTNDILCKTYFYQKELGYSGDFIYDHAEGCEISWKDNAHNVTVDLEMRKQRNKTTKQVRTIEKITPIESFFNFFDPPKIQNEDQDEELEEDLEERLALDYSIGEQLKDKLIPRAVDWFTGAALEFEFEEDEEEADEDEDEEEDDDHGLEDDDGESAEEQDDFAGRPEQAPECKQS
B3: H6-Srp1 (natural protein, yeast, UniProt Q02821 1-542, looked up)
chain: MDNGTDSSTSKFVPEYRRTNFKNKGRFSADELRRRRDTQQVELRKAKRDEALAKRRNFIPPTDGADSDEEDESSVSADQQFYSQLQQELPQMTQQLNSDDMQEQLSATVKFRQILSREHRPPIDVVIQAGVVPRLVEFMRENQPEMLQLEAAWALTNIASGTSAQTKVVVDADAVPLFIQLLYTGSVEVKEQAIWALGNVAGDSTDYRDYVLQCNAMEPILGLFNSNKPSLIRTATWTLSNLCRGKKPQPDWSVVSQALPTLAKLIYSMDTETLVDACWAISYLSDGPQEAIQAVIDVRIPKRLVELLSHESTLVQTPALRAVGNIVTGNDLQTQVVINAGVLPALRLLLSSPKENIKKEACWTISNITAGNTEQIQAVIDANLIPPLVKLLEVAEYKTKKEACWAISNASSGGLQRPDIIRYLVSQGCIKPLCDLLEIADNRIIEVTLDALENILKMGEADKEARGLNINENADFIEKAGGMEKIFNCQQNENDKIYEKAYKIIETYFGEEEDAVDETMAPQNAGNTFGFGSNVNQQFNFN

Experiments:
Assay in all cases: pull-down
[1] = target: B2
MBP-Kap114 [2] = target: T1, MBP-Kap114
MBP-Kap123 = target: T2, MBP-Kap123
[3] = target: T3, untagged recombinant Kap95
MBP-Kap114 [4] = target: T1, MBP-Kap114; remark: listed apart in the source
[5] = target: T3, untagged recombinant Kap95; remark: listed apart in the source

Q: Does B1 bind [1]?
A: binds

Q: Does B1 bind (MBP-Kap114 [2])?
A: binds

Q: Does B1 bind (MBP-Kap123)?
A: binds

Q: Does B1 bind [3]?
A: binds

Q: Does B2 bind (MBP-Kap114 [4])?
A: binds

Q: Does B3 bind [5]?
A: binds
